Data from US20220119536A1.

Biological target: human VEGF-A (human) (UniProt P15692)
Assay: cell-based or functional assay

Chain of EYLEA® (aflibercept) (Fc fusion) (chain): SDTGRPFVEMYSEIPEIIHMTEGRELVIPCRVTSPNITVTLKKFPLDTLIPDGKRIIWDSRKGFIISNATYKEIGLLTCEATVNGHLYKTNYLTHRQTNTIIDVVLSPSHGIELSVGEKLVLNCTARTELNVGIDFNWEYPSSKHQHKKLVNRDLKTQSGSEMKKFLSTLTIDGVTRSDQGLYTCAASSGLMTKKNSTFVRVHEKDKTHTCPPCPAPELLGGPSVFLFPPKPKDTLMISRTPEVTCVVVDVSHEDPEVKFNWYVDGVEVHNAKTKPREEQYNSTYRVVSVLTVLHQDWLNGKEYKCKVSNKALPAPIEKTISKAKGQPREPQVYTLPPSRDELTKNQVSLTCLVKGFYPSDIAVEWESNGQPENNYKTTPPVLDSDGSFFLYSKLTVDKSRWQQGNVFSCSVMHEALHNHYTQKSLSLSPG
Chain of human VEGF-A (human) (P15692 other isoform, or with tags, fused parts or gaps limits assumed): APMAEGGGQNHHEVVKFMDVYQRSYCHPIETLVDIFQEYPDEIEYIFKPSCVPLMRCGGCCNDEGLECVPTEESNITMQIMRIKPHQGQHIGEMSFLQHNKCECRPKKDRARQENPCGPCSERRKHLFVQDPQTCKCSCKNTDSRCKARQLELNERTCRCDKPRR

For EYLEA® (aflibercept) (Fc fusion), the ERK1/2 phosphorylation: Bottom plateau (AlphaLISA counts) (AlphaLISA counts) was 21700, the ERK1/2 phosphorylation: Top plateau (AlphaLISA counts) (AlphaLISA counts) was 109000 and the HRMEC proliferation Delta (area under the curve vs. basal): Bottom plateau (arbitrary units) (arbitrary units) was 13.3. For the same substance, the HRMEC proliferation Delta (area under the curve vs. basal): IC50 (pM) was 171 pM, the HRMEC proliferation Delta (area under the curve vs. basal): LogIC50 was -9.77 and the HRMEC proliferation Delta (area under the curve vs. basal): Top plateau (arbitrary units) (arbitrary units) was 129. It also gave an IC50, inhibition of VEGF-induced p38 MAPK phosphorylation of 0.74 nM, a Src phosphorylation (Y419): Bottom plateau (AlphaLISA counts) (AlphaLISA counts) of 2210 and a Src phosphorylation (Y419): IC50 of 0.933 nM. For the same substance, the Src phosphorylation (Y419): LogIC50 was -9.37, the Src phosphorylation (Y419): Top plateau (AlphaLISA counts) (AlphaLISA counts) was 3420 and the concentration for full inhibition of VEGF-induced HRMEC proliferation was greater than 16 nM. The p38-MAPK phosphorylation (T180/Y182): Bottom plateau (AlphaLISA counts) (AlphaLISA counts) was 8890, the p38-MAPK phosphorylation (T180/Y182): IC50 was 0.748 nM and the p38-MAPK phosphorylation (T180/Y182): LogIC50 was -9.13. For the same substance, the p38-MAPK phosphorylation (T180/Y182): Top plateau (AlphaLISA counts) (AlphaLISA counts) was 23100.
